Experimental data: patent publication US20220177587A1, “METHODS AND USES OF VARIANT CD80 FUSION PROTEINS AND RELATED CONSTRUCTS” (Alpine Immune Sciences, Inc., priority 2018, published 2022)
Substitutions are numbered along the chain they refer to. In names and notes the source's numbering stands. Read-outs that look alike come from different tables or passages of the source.

B1: CD80 IgV-Fc E35D/M47L/V68M/A71G/L85Q/D90G (Fc fusion)
chain: VIHVTKEVKEVATLSCGHNVSVEELAQTRIYWQKDKKMVLTMMSGDLNIWPEYKNRTIFDITNNLSIMILGLRPSDEGTYECVVQKYEKGAFKREHLAEVTLSVKAD
B2: variant CD80 IgV-Fc I30T/L70R (Fc fusion)
chain: B1 chain with I30T, D35E, L47M, M68V, L70R, G71A, Q85L, G90D
B3: variant CD80 IgV-Fc H18Y/A26E/E35D/M47L (Fc fusion)
chain: B1 chain with H18Y, A26E, M68V, G71A, Q85L, G90D
B4: variant CD80 IgV-Fc (inert) H18L/A26N/D46E/V68M/A71G/D90G (Fc fusion)
chain: B1 chain with H18L, A26N, D35E, D46E, L47M, Q85L
B5: CD80 E35D/M47V IgV-Fc (Fc fusion)
chain: B1 chain with L47V, M68V, G71A, Q85L, G90D
B6: variant CD80 IgV-Fc E35D/M47L/V68M/D90G (Fc fusion)
chain: B1 chain with G71A, Q85L
B7: CD80 IgV-Fc E35D/M47L/Y53F/V68M/A71G/K93R/E95V (Fc fusion)
chain: B1 chain with Y53F, Q85L, G90D, K93R, E95V
B8: CD80 IgV-Fc T13R/Q33R/E35D/M38I/M47L/V68M/E95V/L97Q (Fc fusion)
chain: B1 chain with T13R, Q33R, M38I, G71A, Q85L, G90D, E95V, L97Q
B9: variant CD80 IgV-Fc H18Y/E35D/A71G/D90G (Fc fusion)
chain: B1 chain with H18Y, L47M, M68V, Q85L

Tests used:
human CTLA-4 (human) [1] = molecular target: human CTLA-4 (human) (UniProt P16410); assay: flow cytometry, CHO cells stably expressing CTLA4
human PD-L1 (human) [2] = molecular target: human PD-L1 (human) (UniProt Q9NZQ7); assay: flow cytometry, MFI on CHO/PD-L1 over MFI on Jurkat (CD28)
Target sequence in this assay (Q9NZQ7 19-290): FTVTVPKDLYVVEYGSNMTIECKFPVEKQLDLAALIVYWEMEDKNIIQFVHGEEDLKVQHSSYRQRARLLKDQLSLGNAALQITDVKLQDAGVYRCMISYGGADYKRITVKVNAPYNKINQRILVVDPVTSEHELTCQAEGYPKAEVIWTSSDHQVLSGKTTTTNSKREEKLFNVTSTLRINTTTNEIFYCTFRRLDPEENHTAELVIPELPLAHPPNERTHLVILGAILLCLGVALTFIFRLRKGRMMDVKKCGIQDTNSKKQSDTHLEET

human PD-L1 (human) [3] = molecular target: human PD-L1 (human) (UniProt Q9NZQ7); assay: flow cytometry, CHO cells stably expressing PD-L1
Target sequence in this assay (Q9NZQ7 19-290): as above

human PD-L1 (human) [4] = molecular target: human PD-L1 (human) (UniProt Q9NZQ7)
Target sequence in this assay (Q9NZQ7 19-290): as above

CD28 (human) [5] = molecular target: CD28 (human) (UniProt P10747)
CD28 (human) [6] = molecular target: CD28 (human) (UniProt P10747); assay: flow cytometry, Jurkat cells (CD28)
human PD-L1 (human) [7] = molecular target: human PD-L1 (human) (UniProt Q9NZQ7); assay: flow cytometry, HEK293 cells transfected with human PD-L1
Target sequence in this assay (Q9NZQ7 19-290): as above

human PD-L1 (human) [8] = molecular target: human PD-L1 (human) (UniProt Q9NZQ7); assay: flow cytometry, MFI on PD-L1 cells over MFI on CD28 cells
Target sequence in this assay (Q9NZQ7 19-290): as above

human PD-L1 (human) [9] = molecular target: human PD-L1 (human) (UniProt Q9NZQ7); remark: listed apart in the source
Target sequence in this assay (Q9NZQ7 19-290 limits assumed): as the sequence (Q9NZQ7 19-290) above

CD28 (human) [10] = molecular target: CD28 (human) (UniProt P10747); remark: listed apart in the source
human PD-L1 (human) [11] = molecular target: human PD-L1 (human) (UniProt Q9NZQ7); assay: flow cytometry, CHO/PD-L1 cells; MFI over CD80 WT IgV-Fc
Target sequence in this assay (Q9NZQ7 19-290): as above

human PD-L1 (human) [12] = molecular target: human PD-L1 (human) (UniProt Q9NZQ7); remark: listed apart in the source
CD28 (human) [13] = molecular target: CD28 (human) (UniProt P10747); remark: listed apart in the source
CD28 (human) [14] = molecular target: CD28 (human) (UniProt P10747); assay: flow cytometry, Jurkat cells (CD28); MFI over CD80 WT IgV-Fc
human CTLA-4 (human) [15] = molecular target: human CTLA-4 (human) (UniProt P16410); assay: flow cytometry, CHO/CTLA4 cells; MFI over CD80 WT IgV-Fc
human PD-L1 (human) [16] = molecular target: human PD-L1 (human) (UniProt Q9NZQ7); remark: listed apart in the source
CD28 (human) [17] = molecular target: CD28 (human) (UniProt P10747); remark: listed apart in the source
human PD-L1 (human) [18] = molecular target: human PD-L1 (human) (UniProt Q9NZQ7); remark: listed apart in the source
CD28 (human) [19] = molecular target: CD28 (human) (UniProt P10747); remark: listed apart in the source

Chain of human CTLA-4 (human) (P16410 36-223): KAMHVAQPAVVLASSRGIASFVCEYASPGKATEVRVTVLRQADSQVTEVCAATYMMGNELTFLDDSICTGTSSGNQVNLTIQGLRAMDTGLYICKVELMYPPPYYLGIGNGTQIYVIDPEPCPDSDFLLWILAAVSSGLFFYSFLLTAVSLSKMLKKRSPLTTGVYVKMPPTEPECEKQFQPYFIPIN

Binder	Fold change to WT CD80 (human CTLA-4 (human) [1]) [fold]	MFI at 33.3 nM (human CTLA-4 (human) [1]) [MFI]	MFI at 33.3 nM (human PD-L1 (human) [3]) [MFI]	MFI at 33.3 nM (CD28 (human) [6]) [MFI]	Ratio of PDL1:CD28 (human PD-L1 (human) [8])	Fold change to WT CD80 (human PD-L1 (human) [3]) [fold]	Fold change to WT CD80 (CD28 (human) [6]) [fold]	IL-2 luciferase reporter, fold increase over WT CD80-IgV-Fc at 5.0 nM (human PD-L1 (human) [9]) [fold]	IL-2 luciferase reporter, fold increase over WT CD80-IgV-Fc at 5.0 nM (CD28 (human) [10]) [fold]	also measured
B1	10.1	10300	16800	1400	–	–	–	–	–	Ratio of PDL1:CD28 (human PD-L1 (human) [2]): 12; Fold change to WT (human PD-L1 (human) [3]): 202 fold; RLU at 5.0 nM: Fold Increase over WT CD80-IgV-Fc (human PD-L1 (human) [4]): 2.3 fold; RLU at 5.0 nM: Fold Increase over WT CD80-IgV-Fc (CD28 (human) [5]): 2.3 fold; Fold change to WT (CD28 (human) [6]): 33.9 fold
B2	–	–	–	–	–	–	–	–	–	MFI at 22.2 nM (human PD-L1 (human) [7]): 5160
B3	17.7	24000	9950	324	30.7	228	7.4	3.1	3.1	–
B4	–	17000	68000	7250	–	–	–	–	–	Fold change to WT CD80 (human PD-L1 (human) [11]): 412 fold; IL2-luciferase reporter, fold increase in RLU over WT CD80-IgV-Fc at 5.0 nM (human PD-L1 (human) [12]): 4.8 fold; IL2-luciferase reporter, fold increase in RLU over WT CD80-IgV-Fc at 5.0 nM (CD28 (human) [13]): 4.8 fold; Fold change to WT CD80 (CD28 (human) [14]): 71.1 fold; Fold change to WT CD80 (human CTLA-4 (human) [15]): 12.3 fold
B5	–	–	–	–	–	–	–	–	–	IL2-luciferase reporter (RLU), fold increase over WT CD80-IgV-Fc at 5.0 nM (human PD-L1 (human) [16]): 3.4 fold; IL2-luciferase reporter (RLU), fold increase over WT CD80-IgV-Fc at 5.0 nM (CD28 (human) [17]): 3.4 fold
B6	20.3	27600	23500	3410	6.9	539	77.8	1.82	1.82	–
B7	–	–	–	–	–	–	–	–	–	RLU at 5.0 nM: Fold Increase over WT CD80-IgV-Fc (human PD-L1 (human) [18]): 3.9 fold; RLU at 5.0 nM: Fold Increase over WT CD80-IgV-Fc (CD28 (human) [19]): 3.9 fold
B8	–	–	–	–	–	–	–	–	–	RLU at 5.0 nM: Fold Increase over WT CD80-IgV-Fc (human PD-L1 (human) [18]): 2.5 fold; RLU at 5.0 nM: Fold Increase over WT CD80-IgV-Fc (CD28 (human) [19]): 2.5 fold
B9	19	25900	8520	1310	6.5	196	29.8	3.81	3.81	–
